Tests used:
[1] = target: Notch 1-3 NRR domain swap chimera: B of Notch1; A, C, hd1, hd2 of Notch3 (row 5, unnamed on the sheet) (human); assay: ELISA: NRR-Fc protein coated at 1 ug/ml, antibody applied at 5 ug/ml, goat anti-human Fc-HRP, TMB, O.D. 450 nM
[2] = target: Notch 1-3 NRR domain swap chimera: C of Notch1; A, B, hd1, hd2 of Notch3 (row 6, unnamed on the sheet) (human); assay: as above

B1: rat-human chimeric antibody 75 (ch75) (antibody, V domains shown)
VH: QVKLLQSGAALVKPGASVKMSCKASGYAFTDYWVTWVKQSHGKSLEWIGEISPNSGGTNFNEKFKGKATLTVDKSTSTAYMELSRLTSEDSAIYYCTRGEIRYNWFAYWGQGTLVTVSS
VL: NIVMTQSPKSMSISVGDRVTMNCKASQNVGNNIAWYQQKPGQSPKLLIYYASNRYTGVPDRFTGGGYGTDFTLTINSMQAEDAAFYYCQRLYNSPFTFGSGTKLEIK
O.D. 450 nM (ELISA, relative binding capacity) [1]: 2.37 | O.D. 450 nM (ELISA, relative binding capacity) [2]: 0.8

— patent publication US20140127211A1
